Common to all, as to test: ITC
Experiment [1] concerns the target T1, GABAAR-associated protein (GABARAP) (mouse, UniProt Q9DCD6 1-117).
Experiment [2] deals with T1, GABAAR-associated protein (GABARAP). This is another data set of the same source.
Experiment [3] addresses GABARAP K24E (mouse, UniProt Q9DCD6 1-117, K24E).
In experiment [4] the target is GABARAP K66E (mouse, UniProt Q9DCD6 1-117, K66E).
The target of experiment [5] is GABARAP E17A (mouse, UniProt Q9DCD6 1-117, E17A).
In experiment [6] the target is LC3A (mouse, UniProt Q91VR7 1-121).
The target in experiment [7] is GABARAPL2 (mouse, UniProt P60521 1-117).
Chain of GABARAPL2 (P60521 whole entry): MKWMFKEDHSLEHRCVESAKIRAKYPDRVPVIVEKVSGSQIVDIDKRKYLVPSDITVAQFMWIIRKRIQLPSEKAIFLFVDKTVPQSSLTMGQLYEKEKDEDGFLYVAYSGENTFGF
The target of experiment [8] is LC3B (mouse, UniProt Q9CQV6 1-120).

Like-named read-outs stand apart in the source and are kept apart here.

T1 sequence (Q9DCD6 whole entry): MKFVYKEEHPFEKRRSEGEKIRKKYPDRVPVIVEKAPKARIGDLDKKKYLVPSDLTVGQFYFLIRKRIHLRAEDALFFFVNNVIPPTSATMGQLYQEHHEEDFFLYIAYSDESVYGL
Chain of GABARAP K66E (Q9DCD6 whole entry K66E): as the sequence (Q9DCD6 whole entry) above, with K66E counted along it
Chain of GABARAP K24E (Q9DCD6 whole entry K24E): as the sequence (Q9DCD6 whole entry) above, with K24E counted along it
Chain of GABARAP E17A (Q9DCD6 whole entry E17A): as the sequence (Q9DCD6 whole entry) above, with E17A counted along it

Consider PAPTIDIRPRSATIQMNNATHLQERDEEYGYECLDGKDCASFFCCFEDCR (domain or fragment) [GABAA receptor γ2 subunit 375-424], for which the affinity in experiment [1], expressed as Kd, was 5.1 µM.
In experiment [2], PEDDWTEFSSEEIREARQAAASHAPS [AnkG-WT peptide] gave a Kd of 0.007 µM.
Still for that read-out and setting: with PEDDWTRFSSEEIREARQAAASHAPS [AnkG-ER peptide] the figure was 0.007 µM.
As to ERDEEYGYECLDGKDCAS [GABAAR γ2 subunit GIM (GABARAP interacting motif, 398–415)], the Kd in experiment [2] was 6.8 µM; in experiment [3], more than 100 µM; in experiment [4], 23.6 µM; in experiment [5], 6.8 µM; in experiment [6], more than 300 µM; in experiment [7] it was more than 200 µM. The molecule also registered a Kd in experiment [8] of more than 300 µM.
In experiment [2], VEEERVIVSDEEIEEARQKAPLEITEY [AnkB-WR peptide] gave a Kd of more than 100 µM.

The values above are taken from paper PMC7803741 (2021).
